Experimental data as given in US20160257946A1.

Molecular target: Her2 on the Her2-positive breast cancer cell line SKBR3 (UniProt P04626)
Experiment: cell-based or functional assay

trastuzumab-MMAF conjugates (trastuzumab-HC136-MMAF) (antibody)
cytotoxicity (cell killing, Cell Titer-Glo viability) on SKBR3 cells, EC50: 0.043 to 0.071 nM
